Experimental data taken from US20250263490A1 (VIB VZW, published 2025).
Where a chain is given by its changes, count along the chain named. Each block holds one binder with its values, some of them ahead of it.

Experiments:
[1] = target: T1, F457E; test: ELISA on coated antigen (100 ng), anti-VHH-HRP, A450
T1 construct: also called human CI-M6PR Dom1-3His6 F457E
T1 chain: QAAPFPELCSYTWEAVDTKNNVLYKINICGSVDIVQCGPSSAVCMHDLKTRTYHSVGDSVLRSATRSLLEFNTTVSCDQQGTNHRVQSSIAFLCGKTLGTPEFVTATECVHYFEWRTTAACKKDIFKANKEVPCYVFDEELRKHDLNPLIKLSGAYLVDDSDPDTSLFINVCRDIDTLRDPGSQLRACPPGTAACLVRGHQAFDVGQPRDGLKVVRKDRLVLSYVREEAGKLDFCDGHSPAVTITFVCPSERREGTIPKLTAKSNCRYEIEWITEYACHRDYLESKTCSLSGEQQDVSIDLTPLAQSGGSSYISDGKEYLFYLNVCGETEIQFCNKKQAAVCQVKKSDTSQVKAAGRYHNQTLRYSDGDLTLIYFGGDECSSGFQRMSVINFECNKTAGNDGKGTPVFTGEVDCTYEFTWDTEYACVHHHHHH
In short: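 Each purified mutant coated at 100 ng per well in 50 mM MES, 150 mM NaCl, pH 6.5 overnight at 4° C; coating-only wells used for background correction. Detection with anti-VHH-HRP, stopped after five minutes with 2N H₂SO₄, read at 450 nm with 655 nm correction.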

[2] = target: T2, human cation-independent mannose-6-phosphate receptor, native, on cells (human, UniProt P11717 41-2491); test: flow cytometry, FLAG3-His6 VHH on HEK293T cells
T2 construct: whole, on cells; also called native CI-M6PR; cell-surface hCI-M6PR
Source text: Synthetic DNA fragments encoding VHHs were ordered (IDT, Leuven, Belgium) and subcloned into an E. coli expression vector under control of an IPTG-inducible lac promoter, in frame with N-terminal PelB signal peptide (which directs the recombinant proteins to the periplasmic compartment) and C-terminal FLAG3 and His6 tags. […] VHH proteins were purified from these clones by means of IMAC chromatography followed by desalting according to well established procedures¹⁰⁶. Cells used herein were recovered using cell dissociation non-enzymatic solution (Sigma Aldrich, cat. #C5914-100ML) and resuspended to a final concentration of 1,000,000 cells/mL in FACS buffer. Cells were incubated with different concentrations of purified FLAG3-tagged VHHs for 30 minutes on ice with shaking, followed by washing and incubation with mouse M2 anti-Flag mAb (Sigma Aldrich, cat. #F-1804) in FACS buffer for 30 min on ice with shaking, followed again by washing. […] Flow cytometry and analysis were done on an Attune NxT Flow Cytometer (Thermo Fisher Scientific).
Moreover, cross-reactivity to mouse CI-M6PR was analyzed, in view of the amino acid homology between mouse and human being overall about 80% identity, but for domain 1-3 of CI-M6PR just about 75% identity.

[3] = target: T3, M85E; test: ELISA on coated antigen (100 ng), anti-VHH-HRP, A450
T3 construct: also called human CI-M6PR Dom1-3His6 M85E
T3 chain: T1 chain with M45E, E417F
Protocol: (§1) To determine the effect of site-directed mutations, an ELISA was performed. To this end, 100 ng of each successfully purified mutant was coated per well on Nunc Maxisorp plates in 50 mM MES, 150 mM NaCl, pH 6.5 buffer overnight at 4° C. […] Coating-only controls were included for background correction. […] Reactions were stopped after five minutes using a 2N H₂SO₄ solution and plates were read at 450 nm, with a 655 nm background correction. Data were analyzed using the GraphPad Prism 9 software.

[4] = target: T4, D87L; test: as above
T4 construct: also called human CI-M6PR Dom1-3His6 D87L
T4 chain: T1 chain with D47L, E417F
Protocol: as §1

[5] = target: T5, recombinant human domain 1-3His6 of the cation-independent mannose-6-phosphate receptor (human, UniProt P11717 41-467); test: BLI exp 2, dissoc pH not printed (between 7 and 6, presumably 6.5)
T5 construct: Biotinylated (NHS-PEG4-biotin) for BLI; Glycosylated; also called hDom1-3His6; hCI-M6PRD1-D3

- EC50 (read off the curve) [1]: ~10 nM
- EC50 [2]: 0.8 nM
- EC50 (read off the curve) [3]: ~3 nM
- EC50 (read off the curve) [4]: ~4 nM
B1: anti-CI-M6PR VHH8 (VHH)
VHH: QVQLQESGGGLVQAGGSLRLSCEASGRTFNTYNWGWFRQAPGKEREFVAAIRWSSSKTSYADSVKGRFTISRDNAKNTIYLQMNSLKPEDTAVYYCAASIVDFTTNPSHFGSWGQGTQVTVSS
notes: His6-tagged (Pichia pastoris)

- EC50 [2]: 20 nM
B2: anti-CI-M6PR VHH7 (VHH)
VHH: QVQLQESGGGLVQPGGSLRLSCAASGIIFSDNRMDWYRQAPGKQREWVATLASYGWKTYADSVKGRFTISRDNTKNTVYLRMNSLKPEDTAVYYCKASSPVLNDIWGQGTQVTVSS
notes: His6-tagged (Pichia pastoris)

- EC50 (read off the curve) [1]: ~0.4 nM
B3: anti-CI-M6PR VHH 1H11 (VHH)
VHH: QVQLQESGGGLVQPGGSLRLSCAASGIIFSDNRMDWYRQAPGKQREWVATLASYGWKTYADSVKDRFTISRDNAKNTVNLYMNSLQPEDTAVYYCNSGQYWGQGTQVTVSS
notes: made in E. coli WK6, His-tag purified

- koff [5]: 0.00017 s⁻¹
- EC50 (read off the curve) [3]: ~2 nM
- EC50 (read off the curve) [4]: ~2 nM
B4: anti-CI-M6PR VHH5 (VHH)
VHH: QVQLQESGGGLVQAGGSLKLSCAAAGRTFSRLAMGWFRQAPGKEREFVAAISENGDSIHYSDSVKGRFAVSRDNAKNTVYLQMNSLKPEDTAIYYCAADRAAYYCSGSGCYPSRAPAAASYDYWGQGTQVTVSS
notes: His6-tagged; made in Pichia pastoris, later also in E. coli WK6
